The supplement of paper PMC9112550, “Optimization of the antimicrobial peptide Bac7 by deep mutational scanning” (BMC Biology, 2022)
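Note: peptides expressed intracellularly from a pBAD plasmid library in pooled LB shake-flask culture, induced with 0.3% L-arabinose, DNA abundance read by NGS, three biological replicates, DESeq2 with apeglm shrinkage.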

Each sequence was assayed on Escherichia coli TOP10 (assay: shrunken log2 fold change of peptide-encoding DNA abundance (4.5 h post-induction vs induction); higher = less antimicrobial activity (less host growth inhibition)). Details: time post-induction: 4.5 h; library: site-saturation at positions 5, 18, 19, 20.
In the case of RRIRNRPPRLPRPRPRPKLHPRP, the “shrunken log2 fold change” value is reported as -0.0882. With RRIRFRPPRLPRPRPRPRIQPRP the “shrunken log2 fold change” value was 0.018. In the case of RRIRMRPPRLPRPRPRPYQKPRP, the “shrunken log2 fold change” value is reported as -0.0182. RRIRNRPPRLPRPRPRPGPMPRP was tested, and the “shrunken log2 fold change” value was -0.0257. With RRIRRRPPRLPRPRPRPNLVPRP the “shrunken log2 fold change” value was -0.023. With RRIRSRPPRLPRPRPRPNERPRP the “shrunken log2 fold change” value was -0.395. RRIRCRPPRLPRPRPRPMRPPRP was tested, and the “shrunken log2 fold change” value was 0.214. With RRIRGRPPRLPRPRPRPYKSPRP the “shrunken log2 fold change” value was -0.135. For RRIRARPPRLPRPRPRPLITPRP, the “shrunken log2 fold change” value was 0.305. In the case of RRIRIRPPRLPRPRPRPSDHPRP, the “shrunken log2 fold change” value is reported as -0.91. For RRIRSRPPRLPRPRPRPFNQPRP, the “shrunken log2 fold change” value was -0.295. In the case of RRIRERPPRLPRPRPRPYNFPRP, the “shrunken log2 fold change” value is reported as -0.254. RRIRGRPPRLPRPRPRPLSWPRP was tested, and the “shrunken log2 fold change” value was 0.781. With RRIRPRPPRLPRPRPRPYKLPRP the “shrunken log2 fold change” value was -0.313. RRIRIRPPRLPRPRPRPPRTPRP was tested, and the “shrunken log2 fold change” value was 0.195. RRIRPRPPRLPRPRPRPPFEPRP was tested, and the “shrunken log2 fold change” value was 0.596. In the case of RRIRERPPRLPRPRPRPQCPPRP, the “shrunken log2 fold change” value is reported as -0.207. In the case of RRIRVRPPRLPRPRPRPVCDPRP, the “shrunken log2 fold change” value is reported as 0.0894. In the case of RRIRKRPPRLPRPRPRPQRTPRP, the “shrunken log2 fold change” value is reported as 0.419. RRIRCRPPRLPRPRPRPCSSPRP was tested, and the “shrunken log2 fold change” value was 0.0866. For RRIRGRPPRLPRPRPRPMPEPRP, the “shrunken log2 fold change” value was 0.226. RRIRSRPPRLPRPRPRPGPWPRP was tested, and the “shrunken log2 fold change” value was -0.0683. With RRIRERPPRLPRPRPRPSYFPRP the “shrunken log2 fold change” value was -0.48. In the case of RRIRTRPPRLPRPRPRPPVDPRP, the “shrunken log2 fold change” value is reported as 0.244. With RRIRERPPRLPRPRPRPLQSPRP the “shrunken log2 fold change” value was -0.306. With RRIRGRPPRLPRPRPRPPAMPRP the “shrunken log2 fold change” value was 1.23. In the case of RRIRERPPRLPRPRPRPNRTPRP, the “shrunken log2 fold change” value is reported as -1.51. With RRIRGRPPRLPRPRPRPQIIPRP the “shrunken log2 fold change” value was 0.203. With RRIRDRPPRLPRPRPRPNHKPRP the “shrunken log2 fold change” value was -0.661. In the case of RRIRFRPPRLPRPRPRPAWNPRP, the “shrunken log2 fold change” value is reported as 0.291. For RRIRTRPPRLPRPRPRPLVWPRP, the “shrunken log2 fold change” value was 0.44. For RRIRTRPPRLPRPRPRPNIMPRP, the “shrunken log2 fold change” value was -0.526. For RRIRNRPPRLPRPRPRPRVKPRP, the “shrunken log2 fold change” value was 0.139. In the case of RRIRFRPPRLPRPRPRPSLHPRP, the “shrunken log2 fold change” value is reported as -0.558. With RRIRKRPPRLPRPRPRPTMCPRP the “shrunken log2 fold change” value was 0.00679. With RRIRARPPRLPRPRPRPYGDPRP the “shrunken log2 fold change” value was -0.0672. For RRIRHRPPRLPRPRPRPGHTPRP, the “shrunken log2 fold change” value was 0.105. RRIRKRPPRLPRPRPRPEWWPRP was tested, and the “shrunken log2 fold change” value was 0.0708. RRIRHRPPRLPRPRPRPSSNPRP was tested, and the “shrunken log2 fold change” value was -0.399. RRIRCRPPRLPRPRPRPLFCPRP was tested, and the “shrunken log2 fold change” value was -0.442. RRIRFRPPRLPRPRPRPDKNPRP was tested, and the “shrunken log2 fold change” value was -0.413. For RRIRFRPPRLPRPRPRPWLIPRP, the “shrunken log2 fold change” value was -0.441. With RRIRWRPPRLPRPRPRPMTDPRP the “shrunken log2 fold change” value was 0.0543. For RRIRSRPPRLPRPRPRPAQLPRP, the “shrunken log2 fold change” value was -0.142. RRIRDRPPRLPRPRPRPNECPRP was tested, and the “shrunken log2 fold change” value was 0.0169. For RRIRARPPRLPRPRPRPLTKPRP, the “shrunken log2 fold change” value was 0.339. In the case of RRIRQRPPRLPRPRPRPNLEPRP, the “shrunken log2 fold change” value is reported as -0.136. In the case of RRIRARPPRLPRPRPRPQFCPRP, the “shrunken log2 fold change” value is reported as -0.0724. With RRIRTRPPRLPRPRPRPCVQPRP the “shrunken log2 fold change” value was 0.0274. RRIRDRPPRLPRPRPRPRGFPRP was tested, and the “shrunken log2 fold change” value was 0.586. In the case of RRIRCRPPRLPRPRPRPIYIPRP, the “shrunken log2 fold change” value is reported as -0.43. For RRIRTRPPRLPRPRPRPTVSPRP, the “shrunken log2 fold change” value was 0.077. In the case of RRIRNRPPRLPRPRPRPYQCPRP, the “shrunken log2 fold change” value is reported as -0.00804. With RRIRCRPPRLPRPRPRPTPGPRP the “shrunken log2 fold change” value was 0.589. In the case of RRIRVRPPRLPRPRPRPFTAPRP, the “shrunken log2 fold change” value is reported as -0.317. For RRIRYRPPRLPRPRPRPHLFPRP, the “shrunken log2 fold change” value was -0.313. RRIRWRPPRLPRPRPRPTIVPRP was tested, and the “shrunken log2 fold change” value was -0.33. With RRIRIRPPRLPRPRPRPKAIPRP the “shrunken log2 fold change” value was -0.157. With RRIRERPPRLPRPRPRPIMDPRP the “shrunken log2 fold change” value was -0.247. RRIRTRPPRLPRPRPRPVLAPRP was tested, and the “shrunken log2 fold change” value was 0.479. RRIRYRPPRLPRPRPRPFEYPRP was tested, and the “shrunken log2 fold change” value was -0.0492. In the case of RRIRKRPPRLPRPRPRPTSQPRP, the “shrunken log2 fold change” value is reported as 0.149. For RRIRERPPRLPRPRPRPSRPPRP, the “shrunken log2 fold change” value was 0.168. In the case of RRIRRRPPRLPRPRPRPWKTPRP, the “shrunken log2 fold change” value is reported as 0.00424. For RRIRQRPPRLPRPRPRPSNWPRP, the “shrunken log2 fold change” value was -0.227. For RRIRTRPPRLPRPRPRPYSRPRP, the “shrunken log2 fold change” value was 0.0299. For RRIRKRPPRLPRPRPRPAWRPRP, the “shrunken log2 fold change” value was 1.18. In the case of RRIRGRPPRLPRPRPRPVAKPRP, the “shrunken log2 fold change” value is reported as 0.961. For RRIRIRPPRLPRPRPRPLSGPRP, the “shrunken log2 fold change” value was -0.0874. With RRIRFRPPRLPRPRPRPYSKPRP the “shrunken log2 fold change” value was -0.996. In the case of RRIRIRPPRLPRPRPRPGPQPRP, the “shrunken log2 fold change” value is reported as 0.0436. For RRIRYRPPRLPRPRPRPYWSPRP, the “shrunken log2 fold change” value was -0.0274. For RRIRQRPPRLPRPRPRPWSMPRP, the “shrunken log2 fold change” value was -0.0469. With RRIRMRPPRLPRPRPRPSSKPRP the “shrunken log2 fold change” value was 1.87. With RRIRLRPPRLPRPRPRPDCGPRP the “shrunken log2 fold change” value was 0.0932.
